Experimental data as given in paper PMC5420311 (Nature structural & molecular biology, 2017).

Biological target: phosphoubiquitin (UniProt P0CG48 1-76, phosphorylated by PINK1 (Ser65))
Assay: ITC

binding result: binds
B1: ΔUBL-Parkin (80-465) (domain or fragment)
chain: MNATGGDDPRNAAGGCEREPQSLTRVDLSSSVLPGDSVGLAVILHTDSRKDSPPAGSPAGRSIYNSFYVYCKGPCQRVQPGKLRVQCSTCRQATLTLTQGPSCWDDVLIPNRMSGECQSPHCPGTSAEFFFKCGAHPTSDKETSVALHLIATNSRNITCITCTDVRSPVLVFQCNSRHVICLDCFHLYCVTRLNDRQFVHDPQLGYSLPCVAGCPNSLIKELHHFRILGEEQYNRYQQYGAEECVLQMGGVLCPRPGCGAGLLPEPDQRKVTCEGGNGLGCGFAFCRECKEAYHEGECSAVFEASGTTTQAYRVDERAAEQARWEAASKETIKKTTKPCPRCHVPVEKNGGCMHMKCPQPQCRLEWCWNCGCEWNRVCMGDHWFDV
